Measured values published in patent publication US20240101645A1 (HENRY M JACKSON FOUNDATION FOR THE ADVANCEMENT OF MILITARY …, published 2024).

T1: HCoV-229E spike antigens (bead panel) (HCoV-229E, UniProt P15423 16-1115)
T1 sequence: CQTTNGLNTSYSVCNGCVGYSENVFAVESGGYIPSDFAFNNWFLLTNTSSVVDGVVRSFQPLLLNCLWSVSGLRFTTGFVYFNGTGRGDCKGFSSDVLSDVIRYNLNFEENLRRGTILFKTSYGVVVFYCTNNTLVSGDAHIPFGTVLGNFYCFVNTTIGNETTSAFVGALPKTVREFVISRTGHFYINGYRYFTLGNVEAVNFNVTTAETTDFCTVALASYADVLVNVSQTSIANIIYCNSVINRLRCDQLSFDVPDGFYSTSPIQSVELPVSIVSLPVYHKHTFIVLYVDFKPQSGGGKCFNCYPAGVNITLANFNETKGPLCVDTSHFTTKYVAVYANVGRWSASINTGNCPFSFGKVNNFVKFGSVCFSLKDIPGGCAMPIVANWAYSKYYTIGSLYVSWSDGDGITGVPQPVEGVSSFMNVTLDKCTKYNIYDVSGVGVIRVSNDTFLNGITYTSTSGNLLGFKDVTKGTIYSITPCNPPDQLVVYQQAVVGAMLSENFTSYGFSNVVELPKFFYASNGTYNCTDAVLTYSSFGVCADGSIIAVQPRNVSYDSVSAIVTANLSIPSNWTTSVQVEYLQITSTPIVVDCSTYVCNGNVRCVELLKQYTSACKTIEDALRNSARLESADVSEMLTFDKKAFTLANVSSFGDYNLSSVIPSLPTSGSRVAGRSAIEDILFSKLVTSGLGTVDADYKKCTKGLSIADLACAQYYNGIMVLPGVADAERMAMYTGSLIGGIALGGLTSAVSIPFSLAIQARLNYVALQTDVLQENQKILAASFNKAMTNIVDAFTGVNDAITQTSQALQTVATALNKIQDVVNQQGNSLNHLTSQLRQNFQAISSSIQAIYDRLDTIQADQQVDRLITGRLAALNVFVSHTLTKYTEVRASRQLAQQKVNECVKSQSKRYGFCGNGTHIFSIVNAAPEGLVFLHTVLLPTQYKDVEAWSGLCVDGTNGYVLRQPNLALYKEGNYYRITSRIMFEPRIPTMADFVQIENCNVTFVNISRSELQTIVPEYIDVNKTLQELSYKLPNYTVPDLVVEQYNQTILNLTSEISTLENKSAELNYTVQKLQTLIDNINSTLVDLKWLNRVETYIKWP

T2: HCoV-HKU1 spike antigens (bead panel) (HCoV-HKU1, UniProt Q5MQD0 13-1300)
T2 sequence: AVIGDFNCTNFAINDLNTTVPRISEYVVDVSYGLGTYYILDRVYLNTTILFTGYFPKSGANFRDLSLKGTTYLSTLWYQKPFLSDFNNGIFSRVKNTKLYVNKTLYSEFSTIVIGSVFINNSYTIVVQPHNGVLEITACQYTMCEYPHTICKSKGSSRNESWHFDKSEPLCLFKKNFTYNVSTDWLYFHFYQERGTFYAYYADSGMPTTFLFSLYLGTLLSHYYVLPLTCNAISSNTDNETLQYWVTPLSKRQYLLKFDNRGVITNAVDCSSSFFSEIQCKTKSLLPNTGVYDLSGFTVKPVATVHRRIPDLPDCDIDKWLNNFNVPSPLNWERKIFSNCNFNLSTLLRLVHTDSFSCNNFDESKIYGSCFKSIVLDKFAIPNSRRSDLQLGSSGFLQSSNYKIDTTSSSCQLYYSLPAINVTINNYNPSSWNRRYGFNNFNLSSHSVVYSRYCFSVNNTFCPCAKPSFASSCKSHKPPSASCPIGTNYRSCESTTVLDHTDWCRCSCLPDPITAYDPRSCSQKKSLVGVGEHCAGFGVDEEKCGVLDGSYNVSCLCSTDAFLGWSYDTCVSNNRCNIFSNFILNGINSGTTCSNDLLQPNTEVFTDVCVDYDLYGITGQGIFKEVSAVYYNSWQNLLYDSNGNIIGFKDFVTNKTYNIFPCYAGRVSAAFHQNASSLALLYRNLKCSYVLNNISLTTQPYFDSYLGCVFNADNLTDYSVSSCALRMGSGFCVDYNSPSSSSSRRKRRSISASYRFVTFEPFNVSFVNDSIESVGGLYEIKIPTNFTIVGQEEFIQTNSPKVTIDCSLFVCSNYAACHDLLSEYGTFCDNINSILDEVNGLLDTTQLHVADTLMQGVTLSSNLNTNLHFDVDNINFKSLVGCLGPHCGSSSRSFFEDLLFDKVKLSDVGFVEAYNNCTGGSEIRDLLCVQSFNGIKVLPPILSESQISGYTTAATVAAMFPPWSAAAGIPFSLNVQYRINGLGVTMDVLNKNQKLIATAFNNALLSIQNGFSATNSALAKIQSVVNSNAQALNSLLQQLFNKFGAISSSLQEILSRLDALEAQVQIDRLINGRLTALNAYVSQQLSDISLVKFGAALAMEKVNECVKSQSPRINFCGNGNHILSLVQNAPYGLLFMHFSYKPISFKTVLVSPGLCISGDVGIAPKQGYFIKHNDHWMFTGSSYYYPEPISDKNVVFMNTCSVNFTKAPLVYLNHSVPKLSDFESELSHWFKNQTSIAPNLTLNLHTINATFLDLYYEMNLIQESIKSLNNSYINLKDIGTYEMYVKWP

B1: COV_2037 (antibody, V domains shown)
VH: QVQLVQSGAEVKKPGASVKVSCKVSGYTLTELSMHWVRQAPGKGLEWMGGFDPEDAETIYAQKFQGRVTMTEDTSTDTAYMELSSLRSEDTAVYYCATAGAITGTPTNYSYYYGMDFWGQGTTVTVSS
VL: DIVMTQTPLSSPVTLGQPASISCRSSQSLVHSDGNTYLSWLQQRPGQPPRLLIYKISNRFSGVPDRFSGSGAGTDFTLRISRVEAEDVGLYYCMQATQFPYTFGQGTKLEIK
notes: human IgG1
B2: COV_3088 (antibody, V domains shown)
VH: EVQLVESGGGLVQPGGSLRLSCAASGFTFSSYDMHWVRQATGKGLEWVSAIGTAGDTYYPGSVKGRFTISRENAKNSLYLQMNSLRAGDTAVYYCARGSGWPPFFDYWGQGTLVTVSS
VL: SYELTQPPSVSVAPGKTARITCGGNNIGSKSVHWYQQKPGQAPVLVIYYDSDRPSGIPERFSGSNSGNTATLTISRVEAGDEADYYCQVWDSSSDHHWVFGGGTKLTVL
notes: human IgG1
B3: COV_2028 (antibody, V domains shown)
VH: QVQLQESGPGLVKPSGTLSLTCVVSGGSISSSNWWSWVRQPPGKGLEWIGEIYHSGSTNYNPSLKSRVTISVDKSKNQFSLRLTSVTAADTAVYYCARGWNYDYWGQGTLVTVSS
VL: QSALTQPASVSGSPGQSITIACTGTSSDVGSYNLVSWYQQHPGKAPKLMIYEVSKRPSGLSNRFSGSKSGNTASLTISGLQAEDEADYYCYSYAGSSTWVFGGGTKLTVL
notes: human IgG1
B4: COV_2057 (antibody, V domains shown)
VH: EVQLVQSGAEVKKPGESLKISCKGSGYSFISYWIAWVRQMPGKGLEWMGIIYPGDSDTTYSPSFQGQVTISADKSISTAYLQWSSLKASDTAIYYCARLLYYSDSSPLDSWGQGTLVTVSS
VL: DIQMTQSPSSLSASVGDRVTITCRASQSISTYLNWYQQKPGKAPNLLIYAASSLQSGVPSRFSGSGSGTDFTLTISSLQPEDFATYYCQQSHSTPRTFGPGTKVDIK
notes: human IgG1
B5: COV_2054 (antibody, V domains shown)
VH: EVQLVESGGGVLQPGRSLRLSCAASGFTFNNYALHWVRQAPGKGLEWVAVISYDGSSKYYADSVRGRLTISRDNSRNTLYLQMNSLRPEDTAIYYCARDGDGLWLGESFYFDDWGQGTLVTVSS
VL: DIQMTQSPSTLSASVGDRVIITCRASQSISSWLAWYQQKPGKAPKLLIYEASTLQSGVPSRFSGSGSGTEFTLTISSLQPDDSATYYCQQYNSYPVHFSQGTKLEIK
notes: human IgG1
B6: COV_2027 (antibody, V domains shown)
VH: EVQLVESGGGLIQPGGSLRLSCAASGFSVSTNYMSWVRQAPGKGLEWVSIIYSGGGTYYADSVKGRFTISRDTSENTLYLQMNSLRAEDTAVYYCASFLVGATGQPWYWGQGTLVTVSS
VL: not shown
notes: human IgG1
B7: COV_1050 (antibody, V domains shown)
VH: QVQLVESGGGVVQPGRSLRLSCAASRFTFSSYAMHWVRQAPGKGLEWVAVISFDGSNKYYADSVKGRFTIFRDNSKNTLSLQMNSLRTEDTAMYYCASPAGYYESLWGQGTLVTVSS
VL: SYELTQPPSVSVSPGQTARVTCSGDALSKQYGFWYQQKPGQAPTLVIYKDTERPSGIPERFSGSGSGTTVTLTISGVQAEDEADYYCQSTDNSGRWVFGGGTKLTVLG
notes: human IgG1
B8: COV_2196 (antibody, V domains shown)
VH: QVQLVQSGAEVKKPGASVKVSCKVSGYTLIELSMHWVRQAPGKGLEWMGGFDPEDAKTIYAQKFQGRVTMTEDTSTDTAYMELSSLTFEDTAVYYCATTPAFMAAAGDFDYWGQGTLVTVSS
VL: QPVLTQPSSVSVSPGQTATITCSGDVLAKKYARWFQQKPGQAPMLVIYKDTERPSGIPERFSGSSSGTTVTLTINGAQVEDEADYYCYSAAAWVFGGGTKLTVL
notes: human IgG1
B9: COV_2103 (antibody, V domains shown)
VH: EVQLVESGGGVVQPGRSLRLSCGASGFTFSSYGIHWVRQAPGKGLDWVAVIWHDGSQKYYGDSVKGRFTISRDNSKNTLYLQMNRLRAEDTAVYYCARDSGDDYDSSGYPIGNAFDLWGQGTMVTVSS
VL: DIQMTQSPSTLSASVGDRVTITCRASQFINSWLAWYQQKPGKAPKLLIYKASSLETGVPSRFSGSGSGTEFTLTISSLQPDDFATYYCQQYNTYSFTFGPGTKVDIK
notes: human IgG1

What was measured:
[1] = molecular target: SARS-CoV-1 spike antigens (bead panel) (SARS-CoV-1, UniProt P59594 14-1195); test: multiplex bead assay
[2] = molecular target: T1, HCoV-229E spike antigens (bead panel); test: multiplex bead assay
[3] = molecular target: T2, HCoV-HKU1 spike antigens (bead panel); test: multiplex bead assay
[4] = molecular target: SARS-CoV-2 S on pseudovirions (Wuhan Hu-1 / IL1/2020, last 18 amino acids removed) (SARS-CoV-2, UniProt P0DTC2 14-1273); test: cell-based or functional assay

Binder | binding result [1] | binding result [2] | binding result [3] | Mean IC50, pSV neutralization [4] | Mean IC80, pSV neutralization [4]
B1 | no binding | no binding | no binding | 0.07 µg/ml | ≥ 25 µg/ml
B2 | no binding | no binding | no binding | ≥ 25 µg/ml | ≥ 25 µg/ml
B3 | no binding | no binding | no binding | ≥ 25 µg/ml | ≥ 25 µg/ml
B4 | no binding | no binding | no binding | 0.97 µg/ml | 8.99 µg/ml
B5 | no binding | no binding | no binding | ≥ 25 µg/ml | ≥ 25 µg/ml
B6 | no binding | no binding | no binding | 0.16 µg/ml | 0.45 µg/ml
B7 | no binding | no binding | no binding | ≥ 25 µg/ml | ≥ 25 µg/ml
B8 | no binding | no binding | no binding | 0.02 µg/ml | 23.4 µg/ml
B9 | no binding | no binding | no binding | ≥ 25 µg/ml | ≥ 25 µg/ml
